Results: IntAct's records for PubMed 16229834

B1: PRKC apoptosis WT1 regulator protein (Rattus norvegicus (Rat)), Q62627 (parent)
chain: MATGGYRSSGSTTDFLEEWKAKREKMRAKQNPVGPGSSGGDPAAKSPAGPLAQTTAAGTSELNHGPAGAAAPAAPGPGALNCAHGSSALPRGAPGSRRPEDECPIAAGAAGAPASRGDEEEPDSAPEKGRSSGPSARKGKGQIEKRKLREKRRSTGVVNIPAAECLDEYEDDEAGQKERKREDAITQQNTIQNEAASLPDPGTSYLPQDPSRTVPGRYKSTISAPEEEILNRYPRTDRSGFSRHNRDTSAPANFASSSTLEKRIEDLEKEVLRERQENLRLTRLMQDKEEMIGKLKEEIDLLNRDLDDMEDENEQLKQENKTLLKVVGQLTR
partner: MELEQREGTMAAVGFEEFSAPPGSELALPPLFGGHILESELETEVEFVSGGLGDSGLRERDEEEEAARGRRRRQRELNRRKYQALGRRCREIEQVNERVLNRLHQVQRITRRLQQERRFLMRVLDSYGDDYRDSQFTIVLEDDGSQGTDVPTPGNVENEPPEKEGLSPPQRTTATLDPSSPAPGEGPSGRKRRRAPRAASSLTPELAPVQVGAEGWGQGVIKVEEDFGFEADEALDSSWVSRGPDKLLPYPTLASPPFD

Variants of: B1
Settings: with tfpt_rat Tfpt

Variant	effect of a mutation on the interaction
L295A;L316A;L330A	disrupting interaction
